Assay: label from the status in PepcDB records

Row | Sequence | protein production
1 | MSTTLLRTIQLNQFSLLGTSLLRRRRSNNFSVRSCGSQTTTTHEAKQSSPTRVAPKNHKSNQLDEILRDYEAVIGIETHVQLSTLTKAFCSCSNNYGSYPNTSICPVCMGLPGALPVLNSKVVEFGVRLGLALNCDLSLKSKFDRKQYFYPDLPKGYQISQFDIPIASGGYVDVDIPLEFGGGHRRFGITRVHMEEDAGKLLHSDTGDYSQVDLNRAGVPLLEIVSEPDMRSGIEAAEYACEMQRIARYLGVSNGNMQEGSLRCDVNISIRPIGQAEFGTKVEIKNLNAFSAISRAIDFEISRQALLYNQGKADQIVTETRLWEEGAQKTVTMRKKEGLADYRYFPEPDLPEVILTQEYVDSIRASLPELPEAKRRRYEAMGLGMQDVLFLANDVSVAEYFDAVIGKGAEVKLAANWIMSDIAAYLKNEKLSINDIKLTPQELAELIAAIKDGTISGKIGKEILFELLAKGGTVKGMIKAKDLVQITDPAEIEKMVIQVVSENPKQLEQYRSGKTKLQGYFAGQVMKMSKGKANPGLLNKILLEKLNAKD | failed
2 | VEGFKVMRDGIKVASDETLLTPRFYTTDFDEMERLFSLELNKNMDMEEFEAMLNEFKLDYNQRHFVRNETFKEAAEKIQGPTRKIFIEFLERSCTAEFSGFLLYKELGRRLKATNPVVAEIFTLMSRDEARHAGFLNKAMSDFNLALDLGFLTKNRKYTFFKPKFIFYATYLSEKIGYWRYISIYRHLQRNPDNQLYPLFEYFENWCQDENRHGDFFTAVLKARPEMVNDWAAKLWSRFFCLSVYITMYLNDHQRDAFYSSLGLNTTQFNQHVIIETNKSTERIFPAVPDVENPEFFRRMDLLVKYNAQLVNIGSMNLPSPIKAIMKAPILERMVAEVFQVFIMTPKESGSYDLDANKTALVY | not failed
3 | MSIEVPISIPKTLIIIPAYNEEEAIADTLTRLLELKQHFTALSICVINDGSQDKTAQIVKNFPVHLINLPYNLGIGSAVQTGYKYAYENGYDIAIQFDADGQHNPDDLYKIIQPIAEGQCDMVLGSRFTEKTAYKGSISRRIGIFYFTALLKVLTKQTFMDPTSGYRAINREVITIFAHNYPKDYPEPEVLIHLKKKKLRINEISVNMQERQGGQSSITPLKSAYYMIKVSLAILMQKIVKGLEHHHHHH | failed
4 | MKRYPRDMRGHGPTPPDAAWPGGARIAVSIVLNYEEGGENCLLHGDAQSEAFLSDIAGAQPWPGQRHWNMESIYDYGARAGFWRLHRLFTGLNIPVTVYGVATALARSPEQVAAMKSAGWEIASHGLKWVEHRDMPEEEERRQIAEAIRLHAEVVGERPRGWYTGRCSVNTVRLTAEEGGFDWISDTYDDDQPYWLETGTRDQLVIPYTLEANDMRFATAPGYIEGEQFFTYLRDSFDTLYAEGCAGQAKMFSIGLHCRLIGRPGKIAGLKRFLDYARTHERVWFPCRGDIARHWHETHPHRRRPRPSRMDRESFVAHFGGIYEHSPWIAERAFELELGPAHDSPAGLANALARIFRSATPAERLSVLKAHPDLAGKLAQARRLTASSSFEQSSAGLDALTDAERAEFATLNADYVAKHGFPFIIAVRDHDKAGILAAFETRLAHDSATEFATACRQVERIAELRLQDMLKLEHHHHHH | failed
5 | MTSTSITAVEYQSKRLESRLLKETREYVIALPEGYAQSLEAYPVVYLLDGEDQFDHMASLLQFLSQGTMPQIPKVIIVGIHNTNRMRDYTPTHTLVLPSGNKGNPQYQHTGGAGRFLDFIEKELAPSIESQLRTNGINVLVGHSFGGLVAMEALRTDRPLFSAYLALDTSLWFDSPHYLTLLEERVVKGDFKQKQLFMAIANNPLSPGFGVSSYHKDLNLAFADKLTKLAPKGLGFMAKYYPEETHQSVSHIGLYDGIRHLFKDFAIDIYSDSFSKQQVIDQYGVLSERFGHKVTPSQQYLEQLIQYSDRQQLTERKQMLEGLRQHFAKD | not failed
6 | MPSQDYLRVLNPSLSGPTPIAFIILALISAGLLIIIWRNRDLISTDNLRGKIIFIVISAALIFTFGRISFALSEVLIFLWALSILWIRGNTDNIEMNLAMAAWVLAYLYMHSFHPVKADRYIITVLPALAYAISLSLNNLSALMRSRRASTVLSIAVTLLMVSSAIHYTAGWPQEYGIVKGERSGAWLMNHDPSYRDRVIAADRGPAFTWYLGDYVFTRIIHPQRRELSLKYFYEVNPDYYIFWTGKTELPEGYRVIYSRDGVPLPGRFSRYAGILPLRYRIQWMLR | failed
7 | MWYPLAAMKGVLEALHQGDYDTAIDLLTRKALFGREREAKEAWLLLAEVYALYGEEGLEKAHHALEEAYALGGLEYDPLYRSLLAELLALEGRPEREVLPLFLPSRDPRVRYHQAQALFYLGRLEEALEVLEAGLPPHLAWRAEGLKGRILERLGRHGEAALAYERGAELALGLERYWLLLDAAAMWLEAGEGERALLALKEAEAAVGEEDPEDAATRHYLLARAHLLLGNPGLALEEIRKALALEEESGHKAYGTPLVEGQALLQLGRYEEAMASFREALARADAGERPHVLHEMGVAALDHGAYPEAEEHLRALVREEGYPYLAQAYADLAEALYRQGRYQEAEAAAREAVARGAVAAGELVLGHVAYDLLHLEEALEHYRKAAESAEEGSREWVGAQEMVVDTLAQLGYRFPEEMVRRGQAVLPYLHPADEWHAALTAYVERAQALLREGKRLN | failed
8 | MCAADHSREQVMRIGEVASRAGVSVRSVRYYEDQGLLASTRSAGGQRQYTEHEVERVQFLQRLYAAGLSSRTIAELLPCVDAPSEVHSDAALERMAQERDRLTEHIADLVRTRDALNALMTAAREYRDAQFA | failed
9 | MASRSDSAALSRDVPGAAFCGSRDMQKKHLFLALLVTALWGLNFPITKLGLASIDPLLLTALRFTLAALPWVFLVPRPPVAFAWLAAYGLIFGVAMWALINLGIDHGVAPGTAALLIQFSAFFSLGWGVLLFGERLRLQQVLATAIALWGLLRIIGDSPGHATSLGYALLLVSAFSWSVGNVIIKRCGVREVFAFVVWASLFAPLPLLALTWISHGAAPFLQLAGQVSAGAALSLMFQVYAATLFCYWGWNLLLREYPVSRVAPLSLLIPVFGMAGSVLILGQRLGAEEGISMGLILLALAVGQFDWRRLITLGRRSL | failed
10 | MGFFDSGIGGMTVLYEAIKVLPYEDYIFYADTLNVPYGEKSKGKVKEYIFNAAEFLASQNIKALVIACNTATSIAIEDLRRNFDFPIIGIEPAVKPAINKCTEERKRVLVVATNLTLKEEKFHNLVKEIDHHDLVDCLALPGLVEFAENFDFSEDKIIKYLKNELSSFDLKQYGTIVLGCTHFPFFKNSFEKLFGIKVDMISGSVGTAKQLKKVLADRNQLGKGSGSITFFNSGHKIVDQEVISKYKRLFEILDETQRSHVGH | failed
11 | MSSLKGKRIGFGLTGSHCTYEAVFPQIEELVNEGAEVRPVVTFNVKSTNTRFGEGAEWVKKIEDLTGYEAIDSIVKAEPLGPKLPLDCMVIAPLTGNSMSKLANAMTDSPVLMAAKATIRNNRPVVLGISTNDALGLNGTNLMRLMSTKNIFFIPFGQDDPFKKPNSMVAKMDLLPQTIEKALMHQQLQPILVENYQGND | failed
12 | KLRDLDIIVTAPPAPGWGGRYWILVKLTTDDGITGWGECYAASVGPEAMRAVIEDVFARHMEGENPENIELMFRRVYSSGFTQRPDLTAIGAFSGLEIACWDILGKARGRPVWALLGGKMNPRIRAYTYLYPLPHHPITPFWTSADMAAESAADCVARGYTAVKFDPAGPYTLRGGHMPAMTDISLSVEFCRKIRAAVGDKADLLFGTHGQFTTAGAIRLGQAIEPYSPLWYEEPVPPDNVGAMAQVARAVRIPVATGERLTTKAEFAPVLREGAAAILQPALGRAGGIWEMKKVAAMAEVYNAQMAPHLYAGPVEWAANVHFAASIPNILMCESIETPFHDALIKGSIRVEGGYITPPEAPGLGIEVDEALARANPYHGTGLHLEMQEASCDYTNGNSFAGGAPHEEG | not failed
13 | MELQHGQQRHIFEIRLFPEFDKAGMLKSILSVDRDVTATRQGERLLAEENEVLEMIAGNHPLPQTLEQICQMMESQQPGSMCSVLLLEEDGQSLRFAAGLSLPPAYRKLSERVAVGPSVGSCGTAAHWKRTIVVDDIQTSPLWAHALHKVQPFGLRACWSMPIFSSDRQLLGTLATYYREPRSPSQEELALAQRITRIIAIALQRDGHEKQLYRLATQDGLTELNNRRQFIELADREIERSRRHGSRMSVLMMDLDHFKDINDHYGHAVGDEVIRHFSQVCREVLRASDLCGRLGGEEFAAVLPDTGLDDARQVAERLRSLASSARLSAVSGSLGYTVSIGVAERHADETDIDEVLGRADKQLYQAKRDGRNRVSGAAPAHCG | failed
14 | MLLDYDFLLLLNDESGKPTRYYYLLQDFEKDFVAREVAQNKTKRFVKEIIGSEKASKTKNSAIEVSNTKASAMKNETIGSGDLKKVCEKIKSALPFGIISAFKPFKDAFYRDFNHNEQKLLIGAAKSGCIQSSADKLAQLKTRLLYWQDKSVKVDWDKPILIKDFFKGNNYLYRRFCFLLGKHFMDRFLKNNAKASVKDFMSSKEFVAKYRYTPKQNTERAKKLQSYLENKRDFIGFVQALNSLKDNPQDPFLPNEETSFLVFANEPTIVFNLRDYLLVLAQIFNQQAICYCESKCPIELINASPGKDFNKTQDSFPDIKFSTPNQLEQSLNALKNKLAAFFSKHPDKHNGMEFNEIAKTQIEALYMPQSSDGFDDFRKHLEESIKSFIRAKKNRYGFPKIFDVADIEQEERKVIEWREKERASKQSYKQNLQINKIANDLKRDKVVDKRTILSVIDADLDRGFIPPKDLLKQLEKISASLSKDIVIAIKQVEKLELSYALIDNIQHNTLDDTLDFTFIVGDSLSVQSLYVTFDLVIDMDRPMSEQFLNHIGELGSFESRERALEWVRLSQAKLIIETPREALKNAQLSQIEEILTGCIFNGAYRLQNDLKGNRHGNFK | failed
15 | GVKCEPFEALTVDVEDAHQGGVMEELGRRKGDLQDMQPDGRGRTRLEYIIPARGLIGFQNEFLTLTRGTGLMSHIFHEYAPLREGSIGERRNGVLISQDNGDAVAYALWKLQDRGRMFVSPGEPLYEGMI | failed
16 | MPSAMNERTVAELEKLLRYIAANLKQRGREILTNYPITPPQFVALQWLLEEGDLTVGELSNKMYLACSTTTDLVDRMERNGLVARVRDEHDRRVVRIRLLEKGERIIEEVIEKRQRDLANVLESFSDEEIVVFERCLRKLHQEMTKE | not failed
17 | MAQTCSILYIPYMLLLSSLFAAGIATITEGELLSSMIGVQGLIYCKRGSKLTPIQGAVARVTCERTDEYGYEAEDVTVLSQATDAKGYFLATLSSSEVKDYKKVIKIKECRAFLELSPSDTCSFPTEINRGISGAILQNYRLLENKLKMKLFTVGPFVFSSEETQDKSIPNGY | failed
18 | MPRRFRQANARLTILSGGIPYLTNTMTLPDRFQQADAVPDDLQQLEARLAEAEDILLRDSPQAEATAREVLAGATAAGCQSLALRSRTVLGRSLAHQKRNEQATELLESVVAESRSAKMPELLVHAWLGLGLAHLNERRMARGLQAYLEALKICESLNAPELSLRVLTNLASAYAKLEQYDTAQPYLTEAHDTARQLGQPFDLMITSLNLACVCQLSGGTGAALTLIEEALRHAKTVASPRYLKSVLFHFSQLLLDLDRLSEALTYCEQGLNTDSGFGTATPQCELQVTHGEILYGLGRPAEARPALEAGLRAAQDLRLNDAEGRARRCYAQLLEDQDDYQGALAQVRALAQLEHDLREQLAAVNLQLEAERLRSETLAEKRRLKEEGRTQQRLAAQLRHDALTGLPNRLALHEALGQQVAADSAPFALLCLDLDHFKTVNHTLGQPAGDALLLYIGERVQAAVGEQGQTFRRGGNEFVVLLPAVRAAPDALTIAQTLLDTINEPLLLDGQALVVTASIGLALFPEDGRDSLTLQKNADLALHAAKQEGGQAQRYRNALSQAANERLELTQALRSGIGNGELVLHYQPIVEVRSGKTVAVEALVRWQHPRLGLLSPDRFIGLAEDNGLIVPLGRWVLNTALRQLAAWREHWPELRVSVNMAPRQLQQPGSCQEIRDALRAYALPPDALELEITEQTICDEEALEPFLPLIREGLRLAIDDFGTGYSSLSRLYRLPAQILKLDRSLIQDLSADNATDGPLVSALIAFAQRFGMQVTAEGIETAEQLHLLRQ | failed

Reference: a protein production outcome set (Wang et al. 2014)
